{
  "source": "patent US12312397B2",
  "about": "“Anti-O2 antibodies and uses thereof” (priority 2016, dated 2025)",
  "molecules": {"B1": {"name": "KPN179: Class III anti-O2 antigen human mAb; VH SEQ ID NO: 53, VL SEQ ID NO: 54 (antibody, V domains shown)", "VH": "EVQVVESGGGLVKPGGSLRLSCAASGFTFNNAWMNWVRQAPGKGLEWVGRIKRKADGETTDYPASVKGRFTVSRDDSKNTIYLQMNSLKTEDTAIYYCTTRIVTTNDYWGQGTLVTVSS", "VL": "QSALTQPPSVSGSPGQSVTISCTGTSSDVGYYDYVSWYQQHHPGKAPKHMIYDVNKRPSGVPDRFSGSKSGNTASLTISGLQAEDEADYYCCSYAGGDTFVFGTGTKVTVL", "modifications": "Description of Artificial Sequence: SyntheticKPN179 VH polypeptide; Description of Artificial Sequence: SyntheticKPN179 VL polypeptide"}},
  "key": {"[1]": {"tested_on": "O2 LPS", "test": "ELISA binding to O2 LPS", "parameters": "species or system Klebsiella pneumoniae", "conditions": "secondary screening, ELISA", "method_in_brief": "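Serial dilutions of monoclonal antibodies bound to LPS-coated plates for 1 h at room temperature, detected with alkaline phosphatase-conjugated anti-human IgG (1 h) and pNPP substrate (30 min). Absorbance read at 405 nm; EC50 values derived from binding curves.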"}, "[2]": {"tested_on": "O2 LPS activation of NF-κB in RAW264.7-lux cells", "test": "LPS neutralization assay (NF-κB luciferase, RAW264.7-lux), O2 LPS", "format": "cell-based, murine", "parameters": "key to LPS Neut O2: +++: Strongly positive activity; +: Positive activity; +/−: Somewhat positive depending upon the test conditions", "method_in_brief": "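Serially diluted mAbs (human IgG1) pre-mixed 1:1 with LPS at 4 °C for 1 hr, then diluted 1:10 onto RAW264.7-lux cells carrying an NF-κB-driven firefly luciferase; 2.5 h at 37 °C. Luminescence read; % inhibition relative to no-antibody and negative-control mAb wells.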"}, "[3]": {"tested_on": "KPC strain Kp961842_O2", "test": "Lethal pneumonia model, KPC strain Kp961842_O2", "format": "in vivo, Klebsiella pneumoniae", "conditions": "C57/BL6 mice, 2e8 CFU; mAb 2 mg/kg 1 hour post infection; survival", "protocol": "(§1) C57/BL6 mice were obtained from Jackson Laboratories and maintained in a special pathogen-free facility. All animal experiments were conducted in accordance with Institutional Animal Care and Use Committee (IACUC) protocol and guidance. K. pneumoniae strains were grown on agar plates overnight and diluted in saline at proper concentration. The inoculum titer was determined by plating a serial dilution of bacteria onto agar plates prior to and post challenge. In acute pneumonia models, C57/BL6 mice were inoculated with 1e4 to 2e8 colony-forming units (CFU) of K. pneumoniae clinical isolates in 50 μl saline intranasally. Anti-K pneumoniae monoclonal antibodies (mAbs) and human IgG1 control antibodies were given 1-24 hour post bacterial challenge (therapeutic dosing). Mouse survival was monitored daily until up to day 8. Survival data of representative experiments were plotted in Graphpad Prism software.\n(§2) Mice were challenged with 2e8 CFU of Klebsiella pneumoniae Carbanpenemase (KPC) strain Kp961842_O2 or with 3e8 CFU of KPC strain Kp977778_O2, followed by the administration of anti-O2 mAbs. When administered at a concentration of 2 mg/kg 1 hour post bacterial infection, Class III anti-O2 LPS mAbs KPN42, KPN179-IgG1, and KPS44v2017 protected mice from lethal bacterial challenge with the multi-drug resistant KPC strains Kp961842_O2 (FIG. 6, left panel, and FIG. 10) and Kp977778_O2 (FIG. 6B, right panel)."}, "[4]": {"tested_on": "K. pneumoniae O2", "test": "Mouse protection models (O2), Table 7 summary", "format": "in vivo, Klebsiella pneumoniae", "parameters": "key: +++: Strongly positive activity; +: Positive activity; +/−: Somewhat positive depending upon the test conditions", "conditions": "mouse pneumonia models", "protocol": "As described in more detail in below, anti-O2 LPS mAbs were tested for: 1) binding to O1 and O2 LPS (see Example 5); 2) LPS neutralization (LPS-Neut) against O1 and O2 LPS (see Example 7); 3) OPK against capsule mutant strain 43816ΔcpsB lux (O1) and 8570ΔcpsB lux (O2) (see Example 8); and 4) protective activity in pneumonia models (see Example 9). O2 LPS mAbs were subsequently divided into three classes based on their in vitro activities. Class I mAbs were characterized as Binding (O1+O2+)/OPK (O1−O2+); Class 2 mAbs were characterized as Binding (O1+O2+)/OPK (O1+O2+); and Class III mAbs were characterized as Binding (O1±O2+)/OPK (O1−O2+).\nas §1, §2"}, "[5]": {"tested_on": "antibiotic resistant Klebsiella pneumoniae strains", "format": "in vivo", "protocol": "as §1\nThe lethal pneumonia model as described in Example 9 was used to assess the activity of anti-O2 LPS antibodies in combination with an antibiotic. Both antibiotic and antibody were administered 1 hour after bacterial infection.\n50 mg/kg of meropenem and 2 mg/kg of antibody were administered at 1, 2, 4, 6, and 24 hour after bacterial infection, as described for the antibody and antibiotic combination studies in Examples 9 and 10."}},
  "data": [
    {"molecule": "B1", "values": [
      {"measurement": "binding to LPS-O2", "setting": "[1]", "value": "bind"},
      {"measurement": "LPS Neut O2", "setting": "[2]; Table 7 summary", "value": "+/−"},
      {"measurement": "neutralization of LPS-O2", "setting": "[2]; secondary screening", "value": "did not show LPS-neutralizing activity"},
      {"measurement": "protection from lethal bacterial challenge, Kp961842_O2", "setting": "[3]", "value": "protected"},
      {"measurement": "Mouse protection models (O2)", "setting": "[4]", "value": "+++"},
      {"measurement": "time post infection up to which combination with meropenem protects better than control mAb and meropenem", "setting": "[5]; 50 mg/kg meropenem + 2 mg/kg antibody given 1, 2, 4, 6, 24 hour after infection, mice", "value": "up to 4 hours"},
      {"measurement": "protection of combination with meropenem compared to antibody or antibiotic monotherapy", "setting": "[5]; meropenem 50 mpk + antibody 0.2 mpk, both 1 hour after infection, mice", "value": "significantly improved protection"},
      {"measurement": "synergy with meropenem in lethal pneumonia model", "setting": "[5]; sub-therapeutic antibody dose, % survival of mice", "value": "strong synergy"}
    ]}
  ]
}
